Data from patent US20220194999A1 (Janssen / Centocor, published 2022).

Molecular target: T1, HLA-A*02:01 class I complex (conditional p*HLA*02:01, biotinylated heavy chain with beta2-microglobulin) (human, biotinylated heavy chain)
T1 construct: UV-labile peptide p* is cleaved and exchanged for the test peptide; also called HLA 2.1
Experiment: UV peptide exchange, HLA class I ELISA, % of Pos peptide;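 also: Streptavidin-captured HLA complexes after exchange detected via HRP anti-human B2M antibody, absorbance read, colour scales with intact complex, normalized to exchange control peptide as 100%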
Description: The HLA class I ELISA is an enzyme immunoassay based on the detection of beta2-microglobulin (B2M) of (peptide-stabilized) HLA class I complexes. To this end streptavidin is bound onto polystyrene microtiter wells. After washing and blocking, HLA complex present in exchange reaction mixtures or ELISA controls is captured by the streptavidin on the microtiter plate via its biotinylated heavy chain. Non-bound material is removed by washing. Subsequently, horseradish peroxidase (HRP)-conjugated antibody to human B2M is added. […] In the latter case B2M is removed during the washing step. After removal of non-bound HRP conjugate by washing, a substrate solution is added to the wells. A colored product is formed in proportion to the amount of intact HLA complex present in the samples. After the reaction has been terminated by the addition of a stop solution, absorbance is measured in a microtiter plate reader. The absorbance is normalized to the absorbance of an exchange control peptide (represents 100%). Also, suboptimal HLA binding of peptides with a moderate to low affinity for HLA class I molecules can be detected by this ELISA technique
Coating wells of two NUNC MaxiSorp™ 96-well ELISA plates: only the contents of one coating buffer capsule were dissolved in 100 mL of distilled water (0.05 M carbonate-bicarbonate buffer, pH 9.6 at 25° C.). 46 μL of Streptavidin stock solution were added to 23 mL coating buffer. 100 μL of the Streptavidin stock solution were added to all wells. Each microtiter plate was covered with an adhesive seal and incubated overnight at room temperature (18-25° C.).

For SLTCTYFPV (also called M212) [TP53_S127F6 mimic peptide SLTCTYFPV], the Average % was 95.5%, the “Exch I (%)” value was 93.7% and the “Exch II (%)” value was 97.2%.

In the case of SLTCTYFPL (also called M214) [TP53_S127F8 mimic peptide SLTCTYFPL], the Average % is reported as 70.8%, the “Exch I (%)” value is reported as 69.9% and the “Exch II (%)” value is reported as 71.6%.
